Measurements published in patent US20250289887A1 (Memorial Sloan Kettering, published 2025).

Biological target: T1, FKBP12 drug-induced heterodimerization domain (DmrA) (Homo sapiens (Human), UniProt P62942 2-108)
T1 construct: also called FKBP12-DmRA; FKBP12 heterodimerizing domain
Test: drug-induced heterodimerization inside mouse T cells, with 1 µM AP21967; read out as hCD34 surface expression by flow cytometry (FIG. 9B)
Source text: In the instant example, mouse T cells were transduced with the following 2 vectors (FIG. 9A): (Vector 1) encodes a Thy1.1 reporter and a drug-activated intein-tagged antigen-binding construct comprised of a CD19-targeting scFv fused to a hCD34 affinity-tag, a CD8 hinge and transmembrane domain, an AES CL low affinity intein N terminus, an FKBP12 drug-induced heterodimerization domain (DmrA), and an E319K ER retention motif, while (Vector 2) encodes an EGFP reporter and a cytoplasmic signaling shuttle comprised of a FRB drug-induced heterodimerization domain (DmrC), an AES CL low affinity intein C terminus, a CD28 costimulatory domain, and a CD3-zeta chain. In the absence of the dimerizing drug, hCD34 expression at the cell surface is low due to presence of the ER retention motif encoded by Vector1 (FIG. 9B). […] Thus, this system enables drug-regulated splicing to regulate post-translational CAR assembly. Double-transduced cells were cultured with 1 μM A/C heterodimerizing drug and subsequently enriched by MACS sorting using anti-hCD34 magnetic beads to yield highly pure hCD34+CD19-CAR T cells (FIG. 9B). […] This methodology improves upon previous FKBP/FRB-based drug-regulated CAR systems by eliminating the FKBP/FRB proteins following trans-splicing and generating a mature CAR molecule. […]

T1 sequence (P62942 2-108 limits assumed, one chain of several): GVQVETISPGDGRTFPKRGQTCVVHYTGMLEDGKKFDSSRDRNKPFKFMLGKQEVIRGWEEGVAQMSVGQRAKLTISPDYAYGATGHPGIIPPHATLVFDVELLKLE

B1: FRB* heterodimerization domain (DmrC) (other)
chain: MILWHEMWHEGLEEASRLYFGERNVKGMFEVLEPLHAMMERGPQTLKETSFNQAYGRDLMEAQEWCRKYMKSGNVKDLLQAWDLYYHVFRRISK
notes: also called FRB drug-induced heterodimerization domain (DmrC); FRB (DmrB)
binding result: binds
